These results are taken from the DeepSol protein solubility set.

A short description of the data set: soluble on expression in E. coli; label from the status in PepcDB or PDB records.
Consider “MGSDKIHHHHHHMFKKLAADLTGFSDIGQVIHPDDFDKAAADDYVLHEDGEKIYFLIKSKTDEYCFTNLALVHLDGESAVSSKRVLYRYPYAHYPIRHVMFETAGTVDLDVEIKFEIGGKHYSIDVDKKQLEHVKDLYKALLAIAEKQYEGQKMLEFANSSLNHSVTILGGLRQGDMNVPQTFKDLSQESFDWLQGHYYKWNQKDFGSFYEKYINN”, for which the “soluble on expression in E. coli” value is “not soluble”.
With “SAFSGTWQVYAQENYEEFLRAISLPEEVIKLAKDVKPVTEIQQNGSDFTITSKTPGKTVTNSFTIGKEAEITTMDGKKLKCIVKLDGGKLVTRTDRFSHIQEIKAGEMVETLTVGGTTMIRKSKKILVP” the entry was “soluble”.
With “MSLAGGYVIDTTENTFQAMVQTSATFPILLFLWVPTDDRLFAMARALGDAVNKLNGQIQLSRIDIASNPSIAQAFQIQGAPALFALIGGRPMPILQGLPSDEELQQITDVVVPKLIAAAQQAGVTGTAPYSGDPDSDAANSASAGSVQDQVPPEHQEAYMLAQQGDYAGAAAAYEKVLEADPNDTRAARERAKALLLARSANADVRVVRAAAADKPDDVDAQLAVADIDMIGGQIQDAFDRLLDFVAAGHKADIEPVRQRLLEYFTIPEPTDERLKRARRRLATLMYEGHHHHHH” the entry was “soluble”.
To “MKGAEALLRALEREGVEVIFGHPGGAIMPTYDALYDSPIRHILVRHEQGGVHAATAYARASGRVGVVMATSGPGALNLVTGLADAMMDSTPVVAITGNVPRALIGTDAFQEADVTGVTMPITKHNYLVQDVNEIPRVVKEAFHIAATGRPGPVLIDIPKDVQLAEFTGSFDVKLDLPGYKPTLKGHPKQIERALDALEKAERPVLMVGGGAQHAHAELLAFAEKTGLPVITTLMGLGAFPGNHPLWLGMPGMHGTVAANRAIHHADVILAIGLRFDDRVTGKVSRFAPHAHTIIHVDIDPAEIGKVVRTHIPIVGDSRLVLKELLKGAKALRLAAWWRELEEWRTRYPLRYRPKPHLQSQEVIRAFYEATGGHAIVTTGVGQHQMFAAQFFPVTRPRSFLTSGGLGTMGVGLPFAIGAKIARPEELVIDFDGDGSFQMTLQELATVVKYKLDVKVVILNNGYLGMVRQWQDLFHAKRYSEVYLADSNPDFARLAEAYGIKGVRVERKEDLMKGVEAVLNADGPVVAEFKVYQEEGVFPMIPAGGAAEDMILEPPEEKEEVGA” belongs “soluble”; to “MTGYACNHPNIYQSCNCQSFCQPYTHPHEMYYHHGYGCNGHCLDHQESMCEEDDECGMKKRKKHRKKNKKKKNKKKFRFSDEEDDEEKVAHHKKKPIEEDDDEFPLPPNSEEVAEASKSSKKEEDWEDDDKWERKFVSQTTTPAPRQAASGGGLGGLGLGNGGLFGISSGVGVGIPGVGPIGVSSGLGIGK”, “not soluble”.
As for “MHHHHHHSSGVDLGTENLYFQSMENFNNFYILTSKELGRGKFAVVRQCISKSTGQEYAAKFLKKRRRGQDCRAEILHEIAVLELAKSCPRVINLHEVYENTSEIILILEYAAGGEIFSLCLPELAEMVSENDVIRLIKQILEGVYYLHQNNIVHLDLKPQNILLSSIYPLGDIKIVDFGMSRKIGHACELREIMGTPEYLAPEILNYDPITTATDMWNIGIIAYMLLTHTSPFVGEDNQETYLNISQVNVDYSEETFSSVSQLATDFIQSLLVKNPEKRPTAEICLSHSWLQQWDFENLFHPEETSSSSQTQDHSVRSSEDKTSKSS”, the “soluble on expression in E. coli” value is “soluble”.
To “MTEKKKRGLLSWLGFGDEEKSQTTATDTQTQDEPQSQADVEAVAIQTETALTETETETETETETETETETATVEPARIVEQEKPTESFFARLKRSLSRTKANIGAGFFGLFKGKKIDDDLFEELEEQLLIADVGMDTTSKIIANLTARASRQQLRDGEALYGLLKEEMAEILSQVEQPLVIDTEKKPYVILMVGVNGVGKTTTIGKLAKQFQAQGKKVMLAAGDTFRAAAVEQLQVWGERNQVPVIAQHTGADSASVIYDAIEAAKARGIDVVIADTAGRLQNKSNLMEELRKIVRVMKKIDDSAPHEIMLTLDAGTGQNAISQAKLFSDVAPITGITLTKLDGTAKGGVIFAIADQFQIPIRYIGVGEKIDDLRPFATQEFIDALFSREE” belongs “not soluble”; to “MEKLGLEHVCGDLNTEVEHGFTCDLLSEVLGKAQPSTLWITVQSHVNIIAVATVVGIKGIVLCDGHEYEKDTVKKAEENGVVLLKSQENSFIVSGKVYELGLRLEHHHHHH”, “not soluble”; to “MGSDKIHHHHHHMWFRNLLIYRLAGEVITSDELEAYLAKQTLQGCLGLEPQSRGWVPPGIAEADLVYSYGQQMLIALGTEKKLLPASVVNQLAKVRAQEMESHQGYAPGRKQMKEIKEAAYRELLSRAFAIRQRSHAWIDPVGGWFIVEGASASKADALIEAFIKSTGIGLKRIRTTMAPTSAMTAWLSGDDPPAIFSVDSDSIFRSREDKKVSVSYIRQSPDPQEITRHVRTGKEVIRLAMTWRDKISFILDENLQLKRLTLLDIDREPAETAEEQFDSNFFLMTEELRQLLPDLVEILGGMTAD”, “not soluble”.
With “MATFYEVIVRVPFDVEEHLPGISDSFVDWVTGQIWELPPESDLNLTLVEQPQLTVADRIRRVFLYEWNKFSKQESKFFVQFEKGSEYFHLHTLVETSGISSMVLGRYVSQIRAQLVKVVFQGIEPQINDWVAITKVKKGGANKVVDSGYIPAYLLPKVQPELQWAWTNLDEYKLAALNLEERKRLVAQFLAESSQRS” the entry was “soluble”.
With “MKIQDYTKQMVDEKSFIDMAYTLLNDKGETMNLYDIIDEFRALGDYEYEEIENRVVQFYTDLNTDGRFLNVGENLWGLRDWYSVDDIEEKIAPTIQKFDILDADDEEDQNLKLLGEDEMDDDDDIPAQTDDQEELNDPEDEQVEEEINHSDIVIEEDEDELDEDEEVFEDEEDFND” the entry was “not soluble”.
Consider “MSLNRVSHPLTYENFKTSSAEQESKITKLLENLYKGGKRIVKLRNDPTGVTHAIRLDNDIFKLNVYIKNIDTSKSNLRYTEGYLQSLTNILTRAKEIAIQGASGTYESDDKKMISKEVNALLEDVVAIANAKGPDGYSIFSGTKIDSEAFKVTRENKISKTSKDGAGPQIIKVEYNGNQAEKKTEVYNDIHMSNNYPGNVIFFLQNQNIISSINTNGFAVKENTKIYIDNIEIGLTAGDTALDIVAKINESSAPVEASIDPVLNSLSIKTTTPHQIWITEEKESNVLQTLGILTKNNDTKLPPYNLSSSTEVRSRSIFDALIELRDTLYNNKEELVGSRSLAEIDESLKRLLISVADLGAKENRLDRSYERISKEAADMKEDMIQYTDEGHHHHHH”, for which the “soluble on expression in E. coli” value is “soluble”.
To “MHSEKSVMMEPMTNPKNDPRNPDLLLDFEEVEFTRGGKTLVGPITWQVELDERWVILGPNGAGKTTLIRMAAAEEFPSKGALWIMGERIGKTDMRDLRAMIGVSSSALGNRIPTNEKVLDLVISAGYAILGRWREEYDKWDHDRAIEILEQVGAYHLADQTWGTLSEGERKRVLVARALMTNPELLLLDEPTAGMDLGGREDLVGYLAQLAMDPDAPAMVMITHHVEEIPAGFTHALLLDEGEVVSQGLIDEVLTSANLTKAFHQPIKVDKIDGRYFARRQRTARSHRR” belongs “not soluble”.
As to “MGHHHHHHSHMAGAQPGVHALQLKPVCVSDSLKKGTKFVKWDDDSTIVTPIILRTDPQGFFFYWTDQNKETELLDLSLVKDARCGRHAKAPKDPKLRELLDVGNIGRLEQRMITVVYGPDLVNISHLNLVAFQEEVAKEWTNEVFSLATNLLAQNMSRDAFLEKAYTKLKLQVTPEGRIPLKNIYRLFSADRKRVETALEACSLPSSRN”, the “soluble on expression in E. coli” value was “not soluble”.
For the sequence “MAHHHHHHMQQLEQELSLRQSAIETREQQLEMVQLDGARGREAIMRERHSIEEVRRTVRVERCRQRRLWIHQIKEMNAKVLEQVRLLAEERKKNCEQATAKEDAAERAFAADIKMIEEYLPKLISLEDIPVNPEETDIIRRQFDEVFTQGEQTYLASAEEEQARKERLGRGLEVYRQRMLDDYVGKENGKLHDAEATERHLSSVVDQVLN”, the “soluble on expression in E. coli” value is recorded as “not soluble”.
With “MSLKINGEVTFKNNQVNYDENAITNLKLSGSDAKKENIKEVYMDLTNVGGPNKVLMDLNLLKDNSLSQSIGINDNVVAGEKEIPVTIVDKNGENHKAKGILTVKSKVGVGPLDFGFDESRIYFTVTDRFFNGDKNNDDPHGNNYDKKNPYTYHGGDLKGLTDKISYLKELGINTIWITPIVENTDFNQMFSQGKTQYSCHGYWAKDFEKLDPHLGTMDDLKTLIDTAHDSGIKIMVDVVLNHAGYGMKNKDNSGANNSPTEEDIAKFKGMFRENPGNDFITQESAGLPDFKTEDPEVREKLIEWQTGWIERSKTEKGNTIDYFRVDTVKHVDNTTWKAFKNKLTEINPSFKTIGEYFGADINNDGGQLQNGQMDALLDFGYKGKARDFVNGNIEGTSAYLDDRASKISNTNLMGQFLSSHDEDGFLKTVGDDLGKQMLAASLQITDKGIPVIYYGEELGMSGWNGFEQGDQNRYDMDFERLNDPKYKKVHDHYEKLLNIRKEYSKIFSKGNRKTIAGNNEEGYSVVLRSYNGKEITPMNLSENNEEKNITNGQNLFVVLNTKNEDKDISFKTNFKEGEKVKDLYSGNEYSIGKDGKVTVKVPSKEEGGTAILALKNREGHHHHHH” the entry was “soluble”.
To “FDLNDFLEQKVLVRMEAIINSMTMKERAKPEIIKGSRKRRIAAGSGMQVQDVNRLLKQFDDMQRMMKKM” belongs “soluble”; to “MKGLILAAGRGTRLRPLTHTRPKPAIRVAGRPIIHYAVENLLEAGVREIGVVVSPETERDLKVALEGYPVRYVLQEEPQGLAHAVDVARGFLGESPFVLYLGDNLFQKGIRRFLEAFKPGVSAVIALVRVEDPRQFGVAVLEGNRVVRLLEKPKDPPSDLAVAGVYVFSPEVLEVVRGLKPSARGEYEITDAIQGLIDRGKTVVGVEVEGWWKDTGRHQDLLDANRLLLEELTPKVEGDVVESQLTGRVVVEKGAKVVRSTVIGPAHIGAGAVVEEAFVGPFTSVGPRARVVRSEVEYSLLEEEAVVEEVRLRLQECILGVRAEVKSRDGLPRAHRLILGDLSQVELA”, “soluble”; to “MHSLFTLNLDLERAGKVICVQSLPFDTARETLLLLSPVGTQCCYMKNAALFLISHFNLIILESDTWLAYANEAGVNPEEGVADFIRQFNAALPEPVRVDALVGYCSSAPLALLAANQGACRTLLLLNGAYFLKDDGVIKSQYERDVERMMQSIPQGNCAQVYEAVSLLHTKSAYTPSDYRYQQVRPLRELSAFRQYLTFLNSLASLESVRIAQTVKTPTLVWCGSQDRYTDTASSRYIAQLLPHSELVEDPDGQHHDFVDGHERLYLTMTHFLTRHKQRAIQ”, “not soluble”.
To “MSLASFPHRNLTWNDINFVHTTDTHGWYSGHINQPLYHANWGDFISFTTHMRRIAHSRNQDLLLIDSGDRHDGNGLSDITSPNGLKSTPIFIKQDYDLLTIGNHELYLWENSKQEYETVVNHFQDKYVCSNVDIRLDNGLFVPLGLKYKYFTTPIRGIRVMAFGFLFDFKRFNSGTRVTPMAETIHEPWFQEALKHEVDLIIIVGHTPISHNWGEFYQVHQYLRQFFPDTIIQYFGGHSHIRDFTVFDSLSTGLQSGRYCETVGWTSVNLDKADLNLPVRQRFSRSYIDEGHHHHHH” belongs “not soluble”.
Turning to “MGSDKIHHHHHHMMSYVRMTLYHGTDRKSAEKIMESKEILPSQGDNHWLGDGIYFYEEEFHAFKWIWYKEKNRNRLLKNFAIIKAEVICEESRIFDLTKIEHKLLFDMMYKLINTTKLRLDKLRGDMCAEGVVINYMFKNKELGYNKRFDIVRALFPIPVKKYQKIENREKNKKYKERTHRLTFMPEIQVCVKNPSVIKKLEWYDLEKTIDKFLIYTEIYKEDLGI”, the “soluble on expression in E. coli” value is listed as “not soluble”.
To “MIDLAKDHLKKVLSLCGANRDCEYYPCHYENQSCLWCYCPFYPCEDENLGEFVKRKDGSLIWSCMKCNWIHKPEIASEVLKEITELTKDKKINDSIEFIDNHEILMNIKRRVEEKLGKDNSV” belongs “not soluble”.
